These results are taken from publication PMC11574045, “A cofactor-induced repressive type of transcription factor condensation can be induced by synthetic peptides to suppress tumorigenesis” (The EMBO Journal, 2024).

The test system of the assay is HEK293FT cells transfected with TF library. Nature of the assay: Screening of TF condensates based on fluorescent puncta. It is filed as cell-based. To be noted: Figure 1B numerical data; TF library screen, one value per transcriptional factor. In outline: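 HEK293FT, PEI transfection of TF library, 60 h; ±glucose 12 h; 4% PFA fix, 0.05% Triton X-100 permeabilization, 5% BSA block; anti-Flag/anti-GAL4 overnight at 4 °C, Alexa 488 secondary 1 h; high-content imaging, 50 fields/well.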

B1: OVOL3 (protein, UniProt O00110 1-190, looked up)
Putative transcription factor …: MPRAFLVRSRRPQPPNWGHLPDQLRGDAYIPDCSSLGGPPAQQSSSVRDPWTAQPTQGNLTSAPRGPGTLGCPLCPKAFPLQRMLTRHLKCHSPVRRHLCRCCGKGFHDAFDLKRHMRTHTGIRPFRCSACGKAFTQRCSLEAHLAKVHGQPASYAYRERREKLHVCEDCGFTSSRPDTYAQHRALHRAA
With B1, the “Z score of condensed fraction” value is on record as -0.7593.

B2: PFDN5 (protein, UniProt Q99471 2-154, looked up)
Prefoldin subunit 5: AQSINITELNLPQLEMLKNQLDQEVEFLSTSIAQLKVVQTKYVEAKDCLNVLNKSNEGKELLVPLTSSMYVPGKLHDVEHVLIDVGTGYYVEKTAEDAKDFFKRKIDFLTKQMEKIQPALQEKHAMKQAVMEMMSQKIQQLTALGAAQATAKA
Consider B2, for which the “Z score of condensed fraction” value is on record as 0.7455.

B3: PBX3 (protein, UniProt P40426 1-434, looked up)
Pre-B-cell leukemia …: MDDQSRMLQTLAGVNLAGHSVQGGMALPPPPHGHEGADGDGRKQDIGDILHQIMTITDQSLDEAQAKKHALNCHRMKPALFSVLCEIKEKTGLSIRGAQEEDPPDPQLMRLDNMLLAEGVSGPEKGGGSAAAAAAAAASGGSSDNSIEHSDYRAKLTQIRQIYHTELEKYEQACNEFTTHVMNLLREQSRTRPISPKEIERMVGIIHRKFSSIQMQLKQSTCEAVMILRSRFLDARRKRRNFSKQATEILNEYFYSHLSNPYPSEEAKEELAKKCSITVSQVSNWFGNKRIRYKKNIGKFQEEANLYAAKTAVTAAHAVAAAVQNNQTNSPTTPNSGSSGSFNLPNSGDMFMNMQSLNGDSYQGSQVGANVQSQVDTLRHVINQTGGYSDGLGGNSLYSPHNLNANGGWQDATTPSSVTSPTEGPGSVHSDTSN
Take B3: the “Z score of condensed fraction” value is given as 0.7478.

B4: NUP62 (protein, UniProt P37198 2-522, looked up)
Nuclear pore glycoprotein p62: SGFNFGGTGAPTGGFTFGTAKTATTTPATGFSFSTSGTGGFNFGAPFQPATSTPSTGLFSLATQTPATQTTGFTFGTATLASGGTGFSLGIGASKLNLSNTAATPAMANPSGFGLGSSNLTNAISSTVTSSQGTAPTGFVFGPSTTSVAPATTSGGFSFTGGSTAQPSGFNIGSAGNSAQPTAPATLPFTPATPAATTAGATQPAAPTPTATITSTGPSLFASIATAPTSSATTGLSLCTPVTTAGAPTAGTQGFSLKAPGAASGTSTTTSTAATATATTTSSSSTTGFALNLKPLAPAGIPSNTAAAVTAPPGPGAAAGAAASSAMTYAQLESLINKWSLELEDQERHFLQQATQVNAWDRTLIENGEKITSLHREVEKVKLDQKRLDQELDFILSQQKELEDLLSPLEELVKEQSGTIYLQHADEEREKTYKLAENIDAQLKRMAQDLKDIIEHLNTSGAPADTSDPLQQICKILNAHMDSLQWIDQNSALLQRKVEEVTKVCEGRRKEQERSFRITFD
Take B4: the “Z score of condensed fraction” value was -0.01313.

B5: NSD2 (protein, UniProt O96028 1-1365, looked up)
Histone-lysine …: MEFSIKQSPLSVQSVVKCIKMKQAPEILGSANGKTPSCEVNRECSVFLSKAQLSSSLQEGVMQKFNGHDALPFIPADKLKDLTSRVFNGEPGAHDAKLRFESQEMKGIGTPPNTTPIKNGSPEIKLKITKTYMNGKPLFESSICGDSAADVSQSEENGQKPENKARRNRKRSIKYDSLLEQGLVEAALVSKISSPSDKKIPAKKESCPNTGRDKDHLLKYNVGDLVWSKVSGYPWWPCMVSADPLLHSYTKLKGQKKSARQYHVQFFGDAPERAWIFEKSLVAFEGEGQFEKLCQESAKQAPTKAEKIKLLKPISGKLRAQWEMGIVQAEEAASMSVEERKAKFTFLYVGDQLHLNPQVAKEAGIAAESLGEMAESSGVSEEAAENPKSVREECIPMKRRRRAKLCSSAETLESHPDIGKSTPQKTAEADPRRGVGSPPGRKKTTVSMPRSRKGDAASQFLVFCQKHRDEVVAEHPDASGEEIEELLRSQWSLLSEKQRARYNTKFALVAPVQAEEDSGNVNGKKRNHTKRIQDPTEDAEAEDTPRKRLRTDKHSLRKRDTITDKTARTSSYKAMEAASSLKSQAATKNLSDACKPLKKRNRASTAASSALGFSKSSSPSASLTENEVSDSPGDEPSESPYESADETQTEVSVSSKKSERGVTAKKEYVCQLCEKPGSLLLCEGPCCGAFHLACLGLSRRPEGRFTCSECASGIHSCFVCKESKTDVKRCVVTQCGKFYHEACVKKYPLTVFESRGFRCPLHSCVSCHASNPSNPRPSKGKMMRCVRCPVAYHSGDACLAAGCSVIASNSIICTAHFTARKGKRHHAHVNVSWCFVCSKGGSLLCCESCPAAFHPDCLNIEMPDGSWFCNDCRAGKKLHFQDIIWVKLGNYRWWPAEVCHPKNVPPNIQKMKHEIGEFPVFFFGSKDYYWTHQARVFPYMEGDRGSRYQGVRGIGRVFKNALQEAEARFREIKLQREARETQESERKPPPYKHIKVNKPYGKVQIYTADISEIPKCNCKPTDENPCGFDSECLNRMLMFECHPQVCPAGEFCQNQCFTKRQYPETKIIKTDGKGWGLVAKRDIRKGEFVNEYVGELIDEEECMARIKHAHENDITHFYMLTIDKDRIIDAGPKGNYSRFMNHSCQPNCETLKWTVNGDTRVGLFAVCDIPAGTELTFNYNLDCLGNEKTVCRCGASNCSGFLGDRPKTSTTLSSEEKGKKTKKKTRRRRAKGEGKRQSEDECFRCGDGGQLVLCDRKFCTKAYHLSCLGLGKRPFGKWECPWHHCDVCGKPSTSFCHLCPNSFCKEHQDGTAFSCTPDGRSYCCEHDLGAASVRSTKTEKPPPEPGKPKGKRRRRRGWRRVTEGK
As for B5, the “Z score of condensed fraction” value is reported as -0.8212.

B6: PA2G4 (protein, UniProt Q9UQ80 2-394, looked up)
Proliferation-associated …: SGEDEQQEQTIAEDLVVTKYKMGGDIANRVLRSLVEASSSGVSVLSLCEKGDAMIMEETGKIFKKEKEMKKGIAFPTSISVNNCVCHFSPLKSDQDYILKEGDLVKIDLGVHVDGFIANVAHTFVVDVAQGTQVTGRKADVIKAAHLCAEAALRLVKPGNQNTQVTEAWNKVAHSFNCTPIEGMLSHQLKQHVIDGEKTIIQNPTDQQKKDHEKAEFEVHEVYAVDVLVSSGEGKAKDAGQRTTIYKRDPSKQYGLKMKTSRAFFSEVERRFDAMPFTLRAFEDEKKARMGVVECAKHELLQPFNVLYEKEGEFVAQFKFTVLLMPNGPMRITSGPFEPDLYKSEMEVQDAELKALLQSSASRKTQKKKKKKASKTAENATSGETLEENEAGD
On to B6, for which the “Z score of condensed fraction” value worked out at 0.5274.

B7: ATONAL1 (protein, UniProt Q92858 1-354, looked up)
Transcription factor ATOH1: MSRLLHAEEWAEVKELGDHHRQPQPHHLPQPPPPPQPPATLQAREHPVYPPELSLLDSTDPRAWLAPTLQGICTARAAQYLLHSPELGASEAAAPRDEVDGRGELVRRSSGGASSSKSPGPVKVREQLCKLKGGVVVDELGCSRQRAPSSKQVNGVQKQRRLAANARERRRMHGLNHAFDQLRNVIPSFNNDKKLSKYETLQMAQIYINALSELLQTPSGGEQPPPPPASCKSDHHHLRTAASYEGGAGNATAAGAQQASGGSQRPTPPGSCRTRFSAPASAGGYSVQLDALHFSTFEDSALTAMMAQKNLSPSLPGSILQPVQEENSKTSPRSHRSDGEFSPHSHYSDSDEAS
As to B7, the “Z score of condensed fraction” value is given as -0.5192.

B8: ATOH8 (protein, UniProt Q96SQ7 1-321, looked up)
Transcription factor ATOH8: MKHIPVLEDGPWKTVCVKELNGLKKLKRKGKEPARRANGYKTFRLDLEAPEPRAVATNGLRDRTHRLQPVPVPVPVPVPVAPAVPPRGGTDTAGERGGSRAPEVSDARKRCFALGAVGPGLPTPPPPPPPAPQSQAPGGPEAQPFREPGLRPRILLCAPPARPAPSAPPAPPAPPESTVRPAPPTRPGESSYSSISHVIYNNHQDSSASPRKRPGEATAASSEIKALQQTRRLLANARERTRVHTISAAFEALRKQVPCYSYGQKLSKLAILRIACNYILSLARLADLDYSADHSNLSFSECVQRCTRTLQAEGRAKKRKE
As for B8, the “Z score of condensed fraction” value is given as -1.0319.

B9: OLIG1 (protein, UniProt Q8TAK6 1-271, looked up)
Oligodendrocyte transcription …: MYYAVSQARVNAVPGTMLRPQRPGDLQLGASLYELVGYRQPPSSSSSSTSSTSSTSSSSTTAPLLPKAAREKPEAPAEPPGPGPGSGAHPGGSARPDAKEEQQQQLRRKINSRERKRMQDLNLAMDALREVILPYSAAHCQGAPGRKLSKIATLLLARNYILLLGSSLQELRRALGEGAGPAAPRLLLAGLPLLAAAPGSVLLAPGAVGPPDALRPAKYLSLALDEPPCGQFALPGGGAGGPGLCTCAVCKFPHLVPASLGLAAVQAQFSK
On to B9, for which the “Z score of condensed fraction” value was -1.059.

B10: PCBD (protein, UniProt P61457 2-104, looked up)
Pterin-4-alpha-carbinolamine …: AGKAHRLSAEERDQLLPNLRAVGWNELEGRDAIFKQFHFKDFNRAFGFMTRVALQAEKLDHHPEWFNVYNKVHITLSTHECAGLSERDINLASFIEQVAVSMT
B10: the “Z score of condensed fraction” value is listed as -0.6656.

B11: OVOL1 (protein, UniProt O14753 1-267, looked up)
Putative transcription factor …: MPRAFLVKKPCVSTCKRNWSELPDEERGEIYVPVSLGFCPPQPYREPEPSVAEPPSCPLALNMSLRDSSYSMAPGPCVVAQLPSEDMGHLTDPQSRDHGFLRTKMKVTLGDSPSGDLFTCRVCQKAFTYQRMLNRHMKCHNDVKRHLCTYCGKGFNDTFDLKRHVRTHTGVRPYKCSLCDKAFTQRCSLESHLKKIHGVQQKYAYKERRAKLYVCEECGCTSESQEGHVLHLKEHHPDSPLLRKTSKKVAVALQNTVTSLLQGSPHL
In the case of B11, the “Z score of condensed fraction” value was -0.194.

B12: PATZ1 (protein, UniProt Q9HBE1 1-687, looked up)
POZ-, AT hook-, and zinc …: MERVNDASCGPSGCYTYQVSRHSTEMLHNLNQQRKNGGRFCDVLLRVGDESFPAHRAVLAACSEYFESVFSAQLGDGGAADGGPADVGGATAAPGGGAGGSRELEMHTISSKVFGDILDFAYTSRIVVRLESFPELMTAAKFLLMRSVIEICQEVIKQSNVQILVPPARADIMLFRPPGTSDLGFPLDMTNGAALAANSNGIAGSMQPEEEAARAAGAAIAGQASLPVLPGVDRLPMVAGPLSPQLLTSPFPSVASSAPPLTGKRGRGRPRKANLLDSMFGSPGGLREAGILPCGLCGKVFTDANRLRQHEAQHGVTSLQLGYIDLPPPRLGENGLPISEDPDGPRKRSRTRKQVACEICGKIFRDVYHLNRHKLSHSGEKPYSCPVCGLRFKRKDRMSYHVRSHDGSVGKPYICQSCGKGFSRPDHLNGHIKQVHTSERPHKCQTCNASFATRDRLRSHLACHEDKVPCQVCGKYLRAAYMADHLKKHSEGPSNFCSICNRGFSSASYLKVHVKTHHGVPLPQVSRHQEPILNGGAAFHCARTYGNKEGQKCSHQDPIESSDSYGDLSDASDLKTPEKQSANGSFSCDMAVPKNKMESDGEKKYPCPECGSFFRSKSYLNKHIQKVHVRALGGPLGDLGPALGSPFSPQQNMSLLESFGFQIVQSAFASSLVDPEVDQQPMGPEGK
Consider B12, for which the “Z score of condensed fraction” value is recorded as -0.2188.

B13: OLIG3 (protein, UniProt Q7RTU3 1-272, looked up)
Oligodendrocyte transcription …: MNSDSSSVSSRASSPDMDEMYLRDHHHRHHHHQESRLNSVSSTQGDMMQKMPGESLSRAGAKAAGESSKYKIKKQLSEQDLQQLRLKINGRERKRMHDLNLAMDGLREVMPYAHGPSVRKLSKIATLLLARNYILMLTSSLEEMKRLVGEIYGGHHSAFHCGTVGHSAGHPAHAANSVHPVHPILGGALSSGNASSPLSAASLPAIGTIRPPHSLLKAPSTPPALQLGSGFQHWAGLPCPCTICQMPPPPHLSALSTANMARLSAESKDLLK
Turning to B13, the “Z score of condensed fraction” value was -0.3841.
